Measurements taken from publication PMC1361615.

Target: His-tagged M.RsrI (UniProt P14751 1-319)
Assay: size-exclusion chromatography

Sequence of His-tagged M.RsrI (P14751 whole entry): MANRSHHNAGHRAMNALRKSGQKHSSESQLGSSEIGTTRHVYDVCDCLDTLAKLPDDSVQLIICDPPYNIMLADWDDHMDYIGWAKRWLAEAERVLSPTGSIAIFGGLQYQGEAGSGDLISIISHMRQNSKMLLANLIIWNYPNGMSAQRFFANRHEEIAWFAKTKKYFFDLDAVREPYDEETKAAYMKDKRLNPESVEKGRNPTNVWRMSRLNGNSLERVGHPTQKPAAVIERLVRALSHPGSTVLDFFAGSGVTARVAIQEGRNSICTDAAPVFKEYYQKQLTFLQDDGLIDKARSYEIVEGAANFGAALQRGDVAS

B1: 25 bp unmethylated duplex, gel filtration (dsDNA)
DNA 1: GGCAGACACGGAATTCCACAGACGG
DNA 2: CCGTCTGTGGAATTCCGTGTCTGCC
modifications: none
- binding result: binds
